Here are results for two molecules from patent US20240002495A1 (MITSUBISHI TANABE PHARMA, published 2024).

As a reminder, the Kd is the free concentration of one partner at which half of the binding sites on the other are occupied at equilibrium, for simple one-to-one binding.

Where no end group is shown, it is not given here.

Assay [1] addresses T1, recombinant human ST2 Fc chimera (ALX-201-367-C050, Enzo Life Science) (human, UniProt Q01638 19-328).
T1 construct: bought; also called human IL-33 receptor protein; human IL-33 receptor (ST2)
T1 sequence (looked up): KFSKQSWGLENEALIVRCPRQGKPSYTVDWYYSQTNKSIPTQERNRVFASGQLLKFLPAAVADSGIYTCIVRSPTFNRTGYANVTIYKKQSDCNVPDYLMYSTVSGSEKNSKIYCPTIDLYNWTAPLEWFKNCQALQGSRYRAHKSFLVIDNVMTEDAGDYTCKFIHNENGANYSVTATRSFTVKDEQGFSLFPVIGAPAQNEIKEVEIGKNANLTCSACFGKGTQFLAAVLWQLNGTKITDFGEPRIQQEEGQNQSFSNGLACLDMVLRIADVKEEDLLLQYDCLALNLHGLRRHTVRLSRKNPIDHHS
Briefly: SPR (ProteOn), hIL-33 on chip, ST2 Fc chimera as analyte. An excerpt:
Each peptide was N-terminally biotinylated, and was immobilized as ligand onto a NeutrAvidin sensor chip of a surface plasmon resonance (SPR) system (ProteOn XPR36, available from Bio-Rad Laboratories, Inc.). […] The resulting protein (hIL-33) as a ligand was immobilized onto the SPR sensor chip. Each test antibody, the human IL-33 receptor protein (recombinant human ST2 Fc chimera) (ALX-201-367-C050, available from Enzo Life Science, Inc.), or buffer (0.05% Tween20/PBS) alone was then loaded as an analyte onto the sensor chip containing the ligand immobilized thereon (antibody concentration: […]; flow rate: 100 μl/min), to allow them to bind to the ligand. After washing, the amount of analyte (amount of antibody) bound to the ligand on the sensor chip was measured as RU value.

The target of assay [2] is T2, recombinant human IL-33 protein (residues 112 to 270) (ILC0701, ATGen Co. Ltd) (human, UniProt O95760 112-270).
T2 construct: bought protein
T2 sequence: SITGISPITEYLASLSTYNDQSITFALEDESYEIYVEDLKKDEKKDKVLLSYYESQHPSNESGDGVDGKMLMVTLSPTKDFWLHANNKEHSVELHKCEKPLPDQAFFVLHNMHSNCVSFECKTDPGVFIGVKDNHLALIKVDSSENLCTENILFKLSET
The assay can be described thus: SPR (Biacore T200), human IL-33 (ILC0701) immobilized on CM5, Calibration Free Concentration Analysis of the preserved antibody against a control-preserved sample. As to the method: Each alkaline-purified antibody was dissolved in a citrate buffer (50 mM citric acid; 150 mM NaCl (pH: 6.3)) at a concentration of about 10 mg/mL, and was preserved at a temperature of 40° C. for four weeks, to evaluate the preservation stability of each test antibody (IgG). For evaluation of the monomer purity of each antibody after the preservation, monomer purity was measured by size exclusion chromatography analysis (SEC) and microchip capillary SDS electrophoresis (mCE-SDS), and antigen-binding activity was measured by surface plasmon resonance.
In order to confirm the presence of the antigen-binding ability after the preservation, the antigen-binding activity was measured with a surface plasmon resonance system, Biacore T200 (available from GE Healthcare). A human IL-33 protein (ILC0701, available from ATGen Co. Ltd) was immobilized onto a Sensor Chip CM5 (GE Healthcare) (the amount of immobilized protein was about 3000 to 6000 RU) with Amine Coupling Kit (GE Healthcare). Each preserved antibody solution was then diluted to 10-fold with a citric buffer (50 mM citric acid, 150 mM NaCl (pH: 6.3)), and the resulting solution was analyzed to measure the total protein concentration in the solution, using a microvolume spectrophotometer, Astragene II (Astranet Systems, Ltd.) (protein concentration: about 1 mg/mL). The antibody solution after the measurement of the total protein concentration was diluted to 1000-fold with HBS-EP buffer (10 mM HEPES, 150 mM NaCl, 3 mM EDTA, 0.05% (v/v) Surfactant P20 (at pH of 7.4)). The analyte was thereby prepared. The measurement temperature was 25° C. Each analyte was added for 36 seconds at two flow rates of 5 μL/min and 100 μL/min to obtain sensorgrams of the association phase. The sensorgrams were then analyzed by Calibration Free Concentration Analysis using a data analysis program (GE Healthcare, Biacore T200 Evaluation Software v1.0) to determine the concentration of the antibody having antigen-binding activity. As control, each test antibody after preservation at a temperature of 4° C. for four weeks was also analyzed to confirm the antigen-binding activity, to calculate the ratio of antigen-binding activity of each test antibody after the preservation at a temperature of 40° C. for four weeks.

The target in assay [3] is T2, recombinant human IL-33 protein …. The assay can be described thus: KinExA in PBS, alkaline-purified IgG. As to the method: Mixture samples of a test antibody and a human IL-33 protein (ILC0701, available from ATGen Co. Ltd) were prepared. The human IL-33 protein was titrated to a constant concentration of test antibody (final concentration: several tens of pM to several hundreds of pM) over a wide concentration range of the human IL-33 protein (so that it covered the concentrations of the human IL-33 protein resulting from 12-step serial doubling dilutions, i.e. one- to 2048-fold, with the upper limit of final concentration set to several nM to several tens of nM). The mixture samples were incubated at a room temperature until the antigen-antibody reaction reached equilibrium. After the reaction reached equilibrium, the percentage of free anti-IL-33 antibody in each sample was analyzed using KinExA3200. The values of Kd were calculated by fitting the plot of percentages of anti-IL-33 antibody not bound to the human IL-33 protein (vertical axis) and concentrations of antigen (horizontal axis) to a theoretical formula, using a KinExA data analysis program (KinExA Pro Software v3.5.3, available from Sapidyne Instruments, Inc.). Beads for capturing the anti-IL-33 antibody were prepared by suspending 50 mg of Azlactone beads (Sapidyne) in 1 mL of coating solution (10 μg/mL human IL-33 protein (ILC0701, available from ATGen Co. Ltd), 50 mM sodium carbonate at pH of 9.6) and incubating the solution at a room temperature for one hour. The antibody for detection used was anti-human F(ab)′2-DyLight649 (Jackson, 309-495-006).

For assay [4] the target is unchanged. Briefly: cell-based or functional assay.
The target is the same in assay [5]. Briefly: KinExA in PBS, neutral-purified IgG. As to the method:
Each test antibody (IgG) (“antibody (IgG)” indicates an antibody having a molecular form of IgG; hereinafter, the same representation is used) was analyzed to confirm the affinity with the human IL-33 protein by measuring dissociation constant (Kd) between each test antibody and the human IL-33 protein in PBS by kinetic exclusion assay (KinExA) (KinExA3200, available from Sapidyne Instruments, Inc.). Mixture samples of a test antibody and a human IL-33 protein (ILC0701, available from ATGen Co. Ltd) were prepared. The human IL-33 protein was titrated to a constant concentration of test antibody (final concentration: several tens of pM to several hundreds of pM) over a wide concentration range of the human IL-33 protein (so that it covered the concentrations of the human IL-33 protein resulting from 12-step serial doubling dilutions, i.e. one- to 2048-fold, with the upper limit of final concentration set to several nM to several tens of nM). The mixture samples were incubated at a room temperature until the antigen-antibody reaction reached equilibrium. After the reaction reached equilibrium, the percentage of free anti-IL-33 antibody in each sample was analyzed using KinExA3200. The values of Kd were calculated by fitting the plot of percentages of anti-IL-33 antibody not bound to the human IL-33 protein (vertical axis) and concentrations of antigen (horizontal axis) to a theoretical formula, using a KinExA data analysis program (KinExA Pro Software v3.5.3, available from Sapidyne Instruments, Inc.). Beads for capturing the anti-IL-33 antibody were prepared by suspending 50 mg of Azlactone beads (Sapidyne) in 1 mL of coating solution (10 μg/mL human IL-33 protein (ILC0701, available from ATGen Co. Ltd), 50 mM sodium carbonate at pH of 9.6) and incubating the solution at a room temperature for one hour. The antibody for detection used was anti-human F(ab)′2-DyLight649 (Jackson, 309-495-006).

For the next assay, the target named is T3, EDESYEIYV (human, not fully specified (N-terminus)).
T3 construct: synthetic peptide
T3 peptide: EDESYEIYV
Briefly: KinExA, alkaline-purified IgG, peptide. As to the method:
(§1) The mixture samples were incubated at a room temperature until the antigen-antibody reaction reached equilibrium. After the reaction reached equilibrium, the percentage of free anti-IL-33 antibody in each sample was analyzed using KinExA3200. The values of Kd were calculated by fitting the plot of percentages of anti-IL-33 antibody not bound to the human IL-33 protein (vertical axis) and concentrations of antigen (horizontal axis) to a theoretical formula, using a KinExA data analysis program (KinExA Pro Software v3.5.3, available from Sapidyne Instruments, Inc.). Beads for capturing the anti-IL-33 antibody were prepared by suspending 50 mg of Azlactone beads (Sapidyne) in 1 mL of coating solution (10 μg/mL human IL-33 protein (ILC0701, available from ATGen Co. Ltd), 50 mM sodium carbonate at pH of 9.6) and incubating the solution at a room temperature for one hour. The antibody for detection used was anti-human F(ab)′2-DyLight649 (Jackson, 309-495-006).
(§2) The anti-IL-33 monoclonal antibodies A10-1C04 and A25-3H04 bound to the epitope PEP14 as described in the Example 1. […] These peptides were synthesized, and the affinity with the alkali-purified antibodies was calculated as Kd by the KinExA experiment as in Example 9 (Table 14).
For orientation: A kinetic exclusion assay measures how much of one partner remains free in solution.

In assay [6] the target is T4, DQSITFALEDESYEIYVEDL (PEP14) (human, not fully specified).
T4 peptide: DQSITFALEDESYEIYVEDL
The assay can be described thus: KinExA, alkaline-purified IgG, peptide. As to the method: as §1, §2

The next assay deals with T5, LEDESYEIYV (human, not fully specified (N-terminus)).
T5 construct: synthetic peptide
T5 peptide: LEDESYEIYV
The assay can be described thus: KinExA, alkaline-purified IgG, peptide. As to the method: as §1, §2

B1: mature human IL-33 (residues 112 to 270) N-terminally linked with the Avitag sequence, biotinylated (ligand, not shown: small tags and cut ends)
chain: T2 sequence
modifications: biotin on the AviTag sequence (biotin ligase reaction)
notes: also called hIL-33
As for B1, the binding result in assay [1] was “binds”.

B2: A25-3H04 (IgG) (antibody, V domains shown)
VH: EVQLLESGGGLVQPGGSLRLSCAASGFTFSRYYMHWVRQAPGKGLEWVSSISAQSSHIYYADSVEGRFTISRDNSKNTLYLQMNSLRAEDTAVYYCARLATRQNAFDIWGQGTLVTVSS
VL: QSVLTQPPSASGTPGQRVTISCSGSSSNIGRNAVNWYQQLPGTAPKLLIYASNMRRSGVPDRFSGSKSGTSASLAISGLRSEDEADYYCSAWDDSQKVVVFGGGTKLTVL
notes: tested as neutral-purified and as alkaline-purified antibody; also called V17; IGN17
Take B2: the “% Active IgG (antigen binding activity after preservation at 40 C for 4 W)” value in assay [2] was determined as 102%. The Kd in assay [3] was found to be 7.7 pM; in assay [5], 5.38 pM; in the assay with EDESYEIYV it was 301000 pM; in assay [6] it was 1.5 pM; in the assay with LEDESYEIYV it was 11000 pM. Further, the “IC50 of inhibition of IL-6 production by HUVEC (alkaline-purified IgG, human IL-33 100 ng/mL)” value in assay [4] was 0.21 µg/mL. In addition, the “inhibition of IFN-γ production by human PBMC (alkaline-purified IgG 10 ug/mL, IL-33 10 ng/mL, IL-12 10 ng/mL)” value in assay [4] was determined as 97.9%. The “inhibition of production of IL-5 and IL-13 by KU-812 cells (alkaline-purified IgG 1 ug/mL; IL-33 3 ng/mL with IL-3 and C5a)” value in assay [4] was at least 50%. Besides, the “percentage of inhibition (%) of IL-6 production by HUVEC (neutral-purified IgG 1 ug/mL, IL-33 100 ng/mL)” value in assay [4] was 97%.
